In patent US20150118260A1:
Like-named read-outs stand apart in the source and are kept apart here.

Experiments:
[1] = target: porcine CD80 on the porcine CD80-expressing B-cell lymphoma cell line LCL13271-5E4 (porcine)
[2] = target: porcine CD80 on the porcine CD80-expressing B-cell lymphoma cell line LCL13271-5E4 (porcine); experiment: cell-based or functional assay
[3] = target: porcine CD80 on the porcine CD80-expressing B-cell lymphoma cell line LCL13271-5E4 (porcine); experiment: flow cytometry on LCL13271-5E4 cells, MFI against concentration of biotinylated fusion toxin, non-linear least-squares fit

**Q.** With “DT390-bi-pCTLA-4-Non-N-Gly-6xHis (bi-non-N-glycosylated soluble porcine CTLA-4 fusion toxin)” as the substance, how does the Kd [1] read?
**A.** 4.7 nM

**Q.** Which results are given for “DT390-pCTLA4-Non-N-Gly-6xHis (single non-N-glycosylated soluble porcine CTLA-4 fusion toxin)”?
**A.** Kd [1]: 2 nM; protein synthesis inhibition (3H-leucine incorporation) in LCL13271-5E4 cells [2]: 0.33

**Q.** Which Kd [3] does the source give for “DT390-pCTLA-4-Gly-6xHis (single glycosylated soluble porcine CTLA-4 fusion toxin)” here?
**A.** 17.3 nM

**Q.** What about the protein synthesis inhibition (3H-leucine incorporation) in LCL13271-5E4 cells [2] of the same substance?
**A.** 0.67
